Our source for the Ho/Con_1a values is patent US20180155451A1 (published 2018).

To fix the notation:
B1: GpH7-B3 variant K326_19Q/GpL16-k0 (antibody, human IgG1, kappa)
heavy: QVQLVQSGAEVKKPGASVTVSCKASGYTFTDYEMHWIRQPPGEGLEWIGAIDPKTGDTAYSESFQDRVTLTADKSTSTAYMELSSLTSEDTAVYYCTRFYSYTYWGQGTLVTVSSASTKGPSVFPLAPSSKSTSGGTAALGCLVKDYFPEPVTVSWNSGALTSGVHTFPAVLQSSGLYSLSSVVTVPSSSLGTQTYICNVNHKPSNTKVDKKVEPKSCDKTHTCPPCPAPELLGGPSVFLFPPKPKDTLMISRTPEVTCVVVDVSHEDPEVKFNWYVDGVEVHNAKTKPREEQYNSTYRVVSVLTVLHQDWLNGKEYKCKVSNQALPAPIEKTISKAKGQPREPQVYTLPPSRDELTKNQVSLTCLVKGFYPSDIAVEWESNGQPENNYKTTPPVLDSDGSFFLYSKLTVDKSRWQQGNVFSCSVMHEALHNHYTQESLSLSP
light: DIVMTQSPLSLPVTPGEPASISCQASESLVHSNRNTYLHWYLQKPGQSPQLLIYKVSNRFSGVPDRFSGSGSGTDFTLKISRVEAEDVGVYYCSQNTHVPPTFGQGTKVEIERTVAAPSVFIFPPSDEQLKSGTASVVCLLNNFYPREAKVQWKVDNALQSGNSQESVTEQDSKDSTYSLSSTLTLSKADYEKHKVYACEVTHQGLSSPVTKSFNRGEC
notes: homodimerized antibody, mutation in both H chains; also called K326_19Q Ho Ab
B2: GpH7-B3 variant K334_07I/GpL16-k0 (antibody, human IgG1, kappa)
heavy: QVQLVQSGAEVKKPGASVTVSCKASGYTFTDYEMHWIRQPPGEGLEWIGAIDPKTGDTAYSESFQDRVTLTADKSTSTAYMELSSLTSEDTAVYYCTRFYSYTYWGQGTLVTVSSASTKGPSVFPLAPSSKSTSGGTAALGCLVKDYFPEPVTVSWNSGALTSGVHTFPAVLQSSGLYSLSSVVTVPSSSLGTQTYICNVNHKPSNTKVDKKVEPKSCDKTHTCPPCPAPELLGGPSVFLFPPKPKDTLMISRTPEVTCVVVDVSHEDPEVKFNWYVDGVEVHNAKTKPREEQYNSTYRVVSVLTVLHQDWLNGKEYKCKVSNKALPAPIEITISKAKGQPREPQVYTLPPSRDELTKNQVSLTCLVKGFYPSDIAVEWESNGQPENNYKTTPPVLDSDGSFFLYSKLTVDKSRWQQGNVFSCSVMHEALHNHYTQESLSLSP
light: B1 light
notes: homodimerized antibody, mutation in both H chains; also called K334_07I Ho Ab
B3: GpH7-B3 variant S267_14T/GpL16-k0 (antibody, human IgG1, kappa)
heavy: not shown
light: B1 light
notes: homodimerized antibody, mutation in both H chains; also called S267_14T Ho Ab
B4: GpH7-B3 variant Q295_10E/GpL16-k0 (antibody, human IgG1, kappa)
heavy: not shown
light: B1 light
notes: homodimerized antibody, mutation in both H chains; also called Q295_10E Ho Ab
B5: GpH7-B3 variant P271_19Q/GpL16-k0 (antibody, human IgG1, kappa)
heavy: not shown
light: B1 light
notes: homodimerized antibody, mutation in both H chains; also called P271_19Q Ho Ab
B6: GpH7-B3 variant K334_18N/GpL16-k0 (antibody, human IgG1, kappa)
heavy: not shown
light: B1 light
notes: homodimerized antibody, mutation in both H chains; also called K334_18N Ho Ab
B7: GpH7-B3 variant S337_11K/GpL16-k0 (antibody, human IgG1, kappa)
heavy: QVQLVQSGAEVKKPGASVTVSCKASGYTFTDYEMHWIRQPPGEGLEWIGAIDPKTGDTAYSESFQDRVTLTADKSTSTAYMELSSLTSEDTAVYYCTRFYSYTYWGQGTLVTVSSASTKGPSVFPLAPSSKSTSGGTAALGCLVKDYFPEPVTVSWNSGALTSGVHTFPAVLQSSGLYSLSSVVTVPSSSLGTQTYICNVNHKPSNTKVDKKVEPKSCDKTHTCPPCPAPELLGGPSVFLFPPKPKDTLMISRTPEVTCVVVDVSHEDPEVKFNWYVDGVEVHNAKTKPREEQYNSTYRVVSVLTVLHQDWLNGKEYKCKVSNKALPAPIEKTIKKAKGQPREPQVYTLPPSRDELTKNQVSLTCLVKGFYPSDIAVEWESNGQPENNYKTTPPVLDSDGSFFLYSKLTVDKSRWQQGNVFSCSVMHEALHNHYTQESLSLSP
light: B1 light
notes: homodimerized antibody, mutation in both H chains; also called S337_11K Ho Ab
B8: GpH7-B3 variant S324_10E/GpL16-k0 (antibody, human IgG1, kappa)
heavy: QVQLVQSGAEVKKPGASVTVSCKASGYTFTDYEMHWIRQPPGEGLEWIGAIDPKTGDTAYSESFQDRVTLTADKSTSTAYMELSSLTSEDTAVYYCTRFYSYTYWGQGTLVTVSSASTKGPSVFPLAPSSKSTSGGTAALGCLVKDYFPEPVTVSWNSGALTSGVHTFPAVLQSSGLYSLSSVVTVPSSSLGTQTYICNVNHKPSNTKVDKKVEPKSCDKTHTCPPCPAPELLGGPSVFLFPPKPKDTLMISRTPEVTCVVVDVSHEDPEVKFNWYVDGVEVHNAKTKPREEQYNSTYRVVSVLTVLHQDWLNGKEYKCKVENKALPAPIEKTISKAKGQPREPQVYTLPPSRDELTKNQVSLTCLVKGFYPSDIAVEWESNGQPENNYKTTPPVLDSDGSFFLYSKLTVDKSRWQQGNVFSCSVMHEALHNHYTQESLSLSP
light: B1 light
notes: homodimerized antibody, mutation in both H chains; also called S324_10E Ho Ab
B9: GpH7-B3 variant P271_18N/GpL16-k0 (antibody, human IgG1, kappa)
heavy: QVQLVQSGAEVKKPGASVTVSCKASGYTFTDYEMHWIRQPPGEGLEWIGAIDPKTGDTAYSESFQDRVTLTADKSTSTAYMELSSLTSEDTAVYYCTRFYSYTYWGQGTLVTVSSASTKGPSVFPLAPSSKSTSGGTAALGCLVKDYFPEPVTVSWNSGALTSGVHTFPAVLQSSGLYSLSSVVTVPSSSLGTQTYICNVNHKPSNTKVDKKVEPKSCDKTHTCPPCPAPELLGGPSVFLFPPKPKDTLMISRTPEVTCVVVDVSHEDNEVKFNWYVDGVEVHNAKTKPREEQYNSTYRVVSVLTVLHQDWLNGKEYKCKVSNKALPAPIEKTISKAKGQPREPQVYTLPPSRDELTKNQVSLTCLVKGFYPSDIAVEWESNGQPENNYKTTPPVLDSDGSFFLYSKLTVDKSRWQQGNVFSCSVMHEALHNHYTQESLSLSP
light: B1 light
notes: homodimerized antibody, mutation in both H chains; also called P271_18N Ho Ab
B10: GpH7-B3 variant K334_13S/GpL16-k0 (antibody, human IgG1, kappa)
heavy: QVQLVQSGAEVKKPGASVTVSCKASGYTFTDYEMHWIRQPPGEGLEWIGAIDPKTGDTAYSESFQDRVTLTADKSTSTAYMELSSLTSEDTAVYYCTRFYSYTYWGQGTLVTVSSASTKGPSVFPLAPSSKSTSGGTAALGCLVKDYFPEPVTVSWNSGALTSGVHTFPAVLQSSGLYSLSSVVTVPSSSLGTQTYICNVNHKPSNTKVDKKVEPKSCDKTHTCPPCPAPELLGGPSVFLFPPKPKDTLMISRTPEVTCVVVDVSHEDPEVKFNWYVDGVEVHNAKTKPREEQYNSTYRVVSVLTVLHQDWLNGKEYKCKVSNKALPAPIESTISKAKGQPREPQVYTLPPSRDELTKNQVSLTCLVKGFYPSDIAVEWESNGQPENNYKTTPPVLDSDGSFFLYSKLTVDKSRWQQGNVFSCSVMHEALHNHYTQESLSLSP
light: B1 light
notes: homodimerized antibody, mutation in both H chains; also called K334_13S Ho Ab
B11: GpH7-B3 variant K334_15Y/GpL16-k0 (antibody, human IgG1, kappa)
heavy: not shown
light: B1 light
notes: homodimerized antibody, mutation in both H chains; also called K334_15Y Ho Ab
B12: GpH7-B3 variant S337_18N/GpL16-k0 (antibody, human IgG1, kappa)
heavy: not shown
light: B1 light
notes: homodimerized antibody, mutation in both H chains; also called S337_18N Ho Ab
B13: GpH7-B3 variant L328_15Y/GpL16-k0 (antibody, human IgG1, kappa)
heavy: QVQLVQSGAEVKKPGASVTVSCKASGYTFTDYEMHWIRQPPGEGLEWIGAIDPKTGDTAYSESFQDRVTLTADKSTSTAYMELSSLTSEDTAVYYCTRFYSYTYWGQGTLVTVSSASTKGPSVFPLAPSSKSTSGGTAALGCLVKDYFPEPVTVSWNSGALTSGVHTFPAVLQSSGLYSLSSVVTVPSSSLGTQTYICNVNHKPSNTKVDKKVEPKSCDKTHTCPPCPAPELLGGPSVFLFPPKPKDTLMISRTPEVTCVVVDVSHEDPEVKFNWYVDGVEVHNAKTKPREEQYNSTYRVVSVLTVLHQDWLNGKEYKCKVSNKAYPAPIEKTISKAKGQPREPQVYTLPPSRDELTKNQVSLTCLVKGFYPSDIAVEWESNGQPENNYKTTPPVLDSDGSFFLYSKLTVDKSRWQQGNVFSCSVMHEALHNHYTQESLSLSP
light: B1 light
notes: homodimerized antibody, mutation in both H chains; also called L328_15Y Ho Ab
B14: GpH7-B3 variant Y296_07I/GpL16-k0 (antibody, human IgG1, kappa)
heavy: not shown
light: B1 light
notes: homodimerized antibody, mutation in both H chains; also called Y296_07I Ho Ab
B15: GpH7-B3 variant T335_02A/GpL16-k0 (antibody, human IgG1, kappa)
heavy: not shown
light: B1 light
notes: homodimerized antibody, mutation in both H chains; also called T335_02A Ho Ab
B16: GpH7-B3 variant S337_14T/GpL16-k0 (antibody, human IgG1, kappa)
heavy: not shown
light: B1 light
notes: homodimerized antibody, mutation in both H chains; also called S337_14T Ho Ab
B17: GpH7-B3 variant K334_02A/GpL16-k0 (antibody, human IgG1, kappa)
heavy: not shown
light: B1 light
notes: homodimerized antibody, mutation in both H chains; also called K334_02A Ho Ab
B18: GpH7-B3 variant T335_13S/GpL16-k0 (antibody, human IgG1, kappa)
heavy: not shown
light: B1 light
notes: homodimerized antibody, mutation in both H chains; also called T335_13S Ho Ab
B19: GpH7-B3 variant S324_09D/GpL16-k0 (antibody, human IgG1, kappa)
heavy: not shown
light: B1 light
notes: homodimerized antibody, mutation in both H chains; also called S324_09D Ho Ab
B20: GpH7-B3 variant S267_06M/GpL16-k0 (antibody, human IgG1, kappa)
heavy: not shown
light: B1 light
notes: homodimerized antibody, mutation in both H chains; also called S267_06M Ho Ab
B21: GpH7-B3 variant T335_01G/GpL16-k0 (antibody, human IgG1, kappa)
heavy: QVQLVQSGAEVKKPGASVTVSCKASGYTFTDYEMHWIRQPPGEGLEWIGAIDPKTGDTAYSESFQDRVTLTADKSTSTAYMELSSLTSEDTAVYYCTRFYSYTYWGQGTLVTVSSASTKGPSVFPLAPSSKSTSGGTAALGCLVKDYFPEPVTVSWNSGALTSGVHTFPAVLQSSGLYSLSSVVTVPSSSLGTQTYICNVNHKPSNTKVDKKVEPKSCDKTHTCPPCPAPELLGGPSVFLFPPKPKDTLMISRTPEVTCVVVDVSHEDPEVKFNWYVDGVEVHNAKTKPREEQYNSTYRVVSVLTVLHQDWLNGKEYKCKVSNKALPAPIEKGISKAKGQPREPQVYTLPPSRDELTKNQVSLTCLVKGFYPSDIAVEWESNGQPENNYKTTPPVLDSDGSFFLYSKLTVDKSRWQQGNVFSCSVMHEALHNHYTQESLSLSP
light: B1 light
notes: homodimerized antibody, mutation in both H chains; also called T335_01G Ho Ab
B22: GpH7-B3 variant S337_16H/GpL16-k0 (antibody, human IgG1, kappa)
heavy: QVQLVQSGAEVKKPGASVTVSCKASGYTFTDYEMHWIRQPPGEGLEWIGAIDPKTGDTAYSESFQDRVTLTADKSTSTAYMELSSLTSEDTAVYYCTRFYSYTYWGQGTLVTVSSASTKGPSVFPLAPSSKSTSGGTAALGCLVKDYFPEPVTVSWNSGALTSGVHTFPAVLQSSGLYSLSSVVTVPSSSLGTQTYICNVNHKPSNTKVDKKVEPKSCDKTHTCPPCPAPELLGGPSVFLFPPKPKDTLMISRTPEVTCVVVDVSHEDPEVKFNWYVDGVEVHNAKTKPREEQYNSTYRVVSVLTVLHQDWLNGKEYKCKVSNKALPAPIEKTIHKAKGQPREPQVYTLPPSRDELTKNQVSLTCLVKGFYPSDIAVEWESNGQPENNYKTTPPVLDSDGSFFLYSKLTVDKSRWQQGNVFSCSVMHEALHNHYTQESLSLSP
light: B1 light
notes: homodimerized antibody, mutation in both H chains; also called S337_16H Ho Ab
B23: GpH7-B3 variant Q295_12R/GpL16-k0 (antibody, human IgG1, kappa)
heavy: not shown
light: B1 light
notes: homodimerized antibody, mutation in both H chains; also called Q295_12R Ho Ab
B24: GpH7-B3 variant K334_14T/GpL16-k0 (antibody, human IgG1, kappa)
heavy: not shown
light: B1 light
notes: homodimerized antibody, mutation in both H chains; also called K334_14T Ho Ab
B25: GpH7-B3 variant K334_09D/GpL16-k0 (antibody, human IgG1, kappa)
heavy: not shown
light: B1 light
notes: homodimerized antibody, mutation in both H chains; also called K334_09D Ho Ab
B26: GpH7-B3 variant K334_03V/GpL16-k0 (antibody, human IgG1, kappa)
heavy: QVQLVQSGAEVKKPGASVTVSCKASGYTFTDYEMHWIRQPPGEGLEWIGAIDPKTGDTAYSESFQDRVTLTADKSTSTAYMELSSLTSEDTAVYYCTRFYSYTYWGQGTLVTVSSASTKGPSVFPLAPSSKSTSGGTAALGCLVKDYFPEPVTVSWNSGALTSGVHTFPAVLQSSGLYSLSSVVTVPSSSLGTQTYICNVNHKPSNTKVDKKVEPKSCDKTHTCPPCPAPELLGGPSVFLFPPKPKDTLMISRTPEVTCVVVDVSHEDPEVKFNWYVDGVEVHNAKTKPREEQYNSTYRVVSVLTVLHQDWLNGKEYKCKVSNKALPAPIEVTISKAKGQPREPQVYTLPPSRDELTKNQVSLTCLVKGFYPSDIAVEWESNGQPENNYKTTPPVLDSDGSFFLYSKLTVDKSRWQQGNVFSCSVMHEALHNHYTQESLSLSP
light: B1 light
notes: homodimerized antibody, mutation in both H chains; also called K334_03V Ho Ab
B27: GpH7-B3 variant K334_05P/GpL16-k0 (antibody, human IgG1, kappa)
heavy: not shown
light: B1 light
notes: homodimerized antibody, mutation in both H chains; also called K334_05P Ho Ab

T1 sequence (P12314 16-292): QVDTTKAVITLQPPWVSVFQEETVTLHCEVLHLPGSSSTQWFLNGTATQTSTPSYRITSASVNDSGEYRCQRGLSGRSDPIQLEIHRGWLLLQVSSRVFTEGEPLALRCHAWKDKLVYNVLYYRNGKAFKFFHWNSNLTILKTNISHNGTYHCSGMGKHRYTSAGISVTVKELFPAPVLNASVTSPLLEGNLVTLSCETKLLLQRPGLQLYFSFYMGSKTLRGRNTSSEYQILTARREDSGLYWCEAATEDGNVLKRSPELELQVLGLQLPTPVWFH

This assay has as its target T1, FcγRIa extracellular domain with C-terminal His tag (human, UniProt P12314 16-292).
T1 construct: extracellular domain; soluble analyte in Biacore; also called FcgRI; CD64
Briefly: SPR (Biacore), relative FcγRIa binding, GpH7-B3/GpL16-k0 (HoCon Ab) = 100. On the technique in general: SPR reads the build-up and loss of mass on a sensor chip optically.
Regarding B1, the Ho/Con_1a was 105 % of control.

Consider B2, for which the Ho/Con_1a is 107 % of control. With B3, the Ho/Con_1a is 107 % of control. Consider B4, for which the Ho/Con_1a was 105 % of control. Take B5: the Ho/Con_1a is 104 % of control. On to B6, for which the Ho/Con_1a was 108 % of control. Regarding B7, the Ho/Con_1a was 105 % of control.

On to B8, for which the Ho/Con_1a is 106 % of control. Regarding B9, the Ho/Con_1a was 103 % of control. For the molecule B10, the Ho/Con_1a is 106 % of control.

Regarding B11, the Ho/Con_1a is 107 % of control.

For B12, the Ho/Con_1a was 106 % of control.

B13: the Ho/Con_1a was 104 % of control. With B14, the Ho/Con_1a was 106 % of control.

Consider B15, for which the Ho/Con_1a was 105 % of control.

With B16, the Ho/Con_1a was 106 % of control. On to B17, for which the Ho/Con_1a is 106 % of control. B18: the Ho/Con_1a is 105 % of control. As for B19, the figure is 106 % of control; as for B20, 106 % of control. The value for B21 was 106 % of control; that for B22 was 105 % of control. On to B23, for which the Ho/Con_1a was 101 % of control. The value for B24 was 106 % of control. Regarding B25, the Ho/Con_1a is 108 % of control.

Take B26: the Ho/Con_1a was 105 % of control. As for B27, the Ho/Con_1a was 106 % of control.
